Laboratory results reported in article PMC9672302, “H2A.Z deposition by SWR1C involves multiple ATP-dependent steps” (Nature Communications, 2022).

Tests used:
[1] = target: T1, SWR1C (Saccharomyces cerevisiae, UniProt Q05471); experiment: fluorescence polarization of SWR1C binding to labelled H2A nucleosome with added nucleotide (no constant for the nucleotide); details: 1 mM ADP, 10 nM 77N4-ATTO 647N nucleosome, 5 mM MgCl2, pH 7.6, room temperature; indirect, nucleotide modulates nucleosome affinity
T1 construct: gene SWR1; native multi-subunit remodeler complex purified from a yeast strain with FLAG-tagged Swr1, eluted with 3x FLAG peptide; tag kept; with SWR1-complex protein 5; SWR1-complex protein 3; Vacuolar protein sorting-associated protein 71; Actin-like protein ARP6; Vacuolar protein sorting-associated protein 72; SWR1-complex protein 4; SWR1-complex protein 7; Protein AF-9 homolog; Bromodomain-containing factor 1; Actin-related protein 4; Actin; RuvB-like protein 1; RuvB-like protein 2

[2] = test system: SWR1C (SWR1 complex) (Saccharomyces cerevisiae (FLAG-tagged Swr1 strain)); experiment: fluorescence polarization; details: FP: 25 mM HEPES-KOH pH 7.6, 70 mM KCl, 0.2 mM EDTA, 5 mM MgCl2, 1 mM DTT, 0.1 mg/mL BSA, 10 nM nucleosome, 1 mM nucleotide where added, 20 min, room …
[3] = target: H2A.Z nucleosomal product with SWR1C (tethered biotinTEG-117N4-ATTO 647N nucleosome after dimer exchange) (S. cerevisiae | not stated (X. laevis H3.1 or H. sapiens H3.2 C110A made) | X. laevis | yeast (endogenous in the FLAG-tagged Swr1 yeast strain)) (UniProt Q12692); experiment: single-molecule fluorescence colocalisation (TIRF, smFRET set-up); tethered biotinTEG-117N4-ATTO 647N, Cy3B-labeled H2A nucleosome with 30 nM SWR1C, 70 nM H2A.Z-H2B dimer, 70 nM Chz1; 0.5 uM ATP; time from the end of eviction (loss of FRET) to the loss of the Cy3B signal, Kaplan-Meier half-life; room temperature
[4] = target: H2A.Z nucleosomal product with SWR1C (tethered biotinTEG-117N4-ATTO 647N nucleosome after dimer exchange) (S. cerevisiae | not stated (X. laevis H3.1 or H. sapiens H3.2 C110A made) | X. laevis | yeast (endogenous in the FLAG-tagged Swr1 yeast strain)) (UniProt Q12692); experiment: single-molecule fluorescence colocalisation (TIRF, smFRET set-up); as a6 but with 100 uM ATP
[5] = target: SWR1C-nucleosome (SWR1C bound to the tethered biotinTEG-117N4-ATTO 647N H2A nucleosome) (S. cerevisiae | not stated (X. laevis H3.1 or H. sapiens H3.2 C110A made) | X. laevis | yeast (endogenous in the FLAG-tagged Swr1 yeast strain)) (UniProt P04911); experiment: single-molecule fluorescence colocalisation (TIRF, smFRET set-up); biotinTEG-117N4-ATTO 647N nucleosomes incubated with 25 nM SWR1C and tethered on a streptavidin-coated slide; 50 nM Cy3B-labeled H2A.Z-H2B dimer, 50 nM Chz1, 200 uM ATP, 10 nM 77N0 nucleosome in solution; room temperature; 5 min of acquisition
[6] = target: T1, SWR1C; experiment: single-molecule FRET of H2A/H2B eviction from immobilised nucleosomes; assay type: biochemical; details: co-substrates yeast/Xenopus hybrid nucleosome 117N4, H2A.Z/H2B dimer, chaperone Chz1; 0-100 uM ATP; 4 mM MgCl2, pH 7.6, room temperature
[7] = target: H2A nucleosome (77N4-ATTO 647N nucleosome) (S. cerevisiae | not stated (X. laevis H3.1 or H. sapiens H3.2 C110A made) | X. laevis) (UniProt P04911); experiment: fluorescence polarisation; as a1 but with 1 mM ATP; apparent Kd
[8] = target: H2A nucleosome (77N4-ATTO 647N nucleosome) (S. cerevisiae | not stated (X. laevis H3.1 or H. sapiens H3.2 C110A made) | X. laevis) (UniProt P04911); experiment: fluorescence polarisation; as a1 but with 1 mM ADP; apparent Kd
[9] = target: H2A nucleosome (77N4-ATTO 647N nucleosome) (S. cerevisiae | not stated (X. laevis H3.1 or H. sapiens H3.2 C110A made) | X. laevis) (UniProt P04911); experiment: fluorescence polarisation; 0-250 nM SWR1C titrated to 10 nM 77N4-ATTO 647N nucleosome, no nucleotide; 25 mM HEPES-KOH pH 7.6, 70 mM KCl, 0.2 mM EDTA, 5 mM MgCl2, 1 mM DTT, 0.1 mg/mL BSA; 20 min, room temperature; quadratic binding equation, global fit; apparent Kd
[10] = target: H2A.Z nucleosome (77N4-ATTO 647N nucleosome) (S. cerevisiae | not stated (X. laevis H3.1 or H. sapiens H3.2 C110A made) | X. laevis) (UniProt Q12692); experiment: as above
[11] = target: H2A nucleosome (77N4-ATTO 647N nucleosome) (S. cerevisiae | not stated (X. laevis H3.1 or H. sapiens H3.2 C110A made) | X. laevis) (UniProt P04911); experiment: fluorescence polarisation; as a1 but with 1 mM AMP-PNP; apparent Kd

Nc1ncnc2c1ncn2[C@@H]1O[C@H](COP(=O)(O)OP(=O)(O)O)[C@@H](O)[C@H]1O [ADP]
fluorescence polarization of SWR1C binding to labelled H2A nucleosome with added [1]: a decrease in binding was also observed with ADP

77N4 H2A nucleosome (ATTO 647N)
Kd ([2]; 1 mM ADP): 21 nM
Kd ([2]; 1 mM AMP-PNP): 14 nM
Kd ([2]; 1 mM ATP): 31 nM
Kd ([2]; no nucleotide (apo), 5 replicates): 12 nM

Cy3B-labeled H2A/H2B dimer (from UniProt P02293 5-131) (complex)
half-life of release (t release) [3]: 219 s
half-life of release (t release) [4]: 96 s

Cy3B-H2A.Z/H2B dimer (from UniProt P02293 5-131) (complex)
mean lifetime of the bound state [5]: 34 s
percent of nucleosomes bound within 10 s [5]: 50%
percent of nucleosomes that bound at least one dimer in 5 min [5]: 89%

Nc1ncnc2c1ncn2[C@@H]1O[C@H](COP(=O)(O)OP(=O)(O)OP(=O)(O)O)[C@@H](O)[C@H]1O [ATP]
single-molecule FRET of H2A/H2B eviction from immobilised nucleosomes [6]: Priming is ATP-sensitive, as the duration of the priming phase (tprime) decreased with increasing ATP concentration

77N4 H2A.Z nucleosome (ATTO 647N)
Kd ([2]; no nucleotide (apo)): 25 nM

SWR1C (from UniProt Q05471 1-1514; P38326 1-303; Q12509 1-438; Q03433 1-280; P31376 1-625) (complex)
Kd [7]: 31 nM
Kd [8]: 21 nM
Kd [9]: 12 nM
Kd [10]: 25 nM
Kd [11]: 14 nM
